Our source for the Kd, koff and kon values is paper PMC12319226 (Frontiers in Bioinformatics, 2025).

Several values for one entry are separate records, joined by “and”; a condition that tells them apart may be missing. Identical values can stand only once.

Common to all, as to assay: BLI
Holding throughout (details): both partners purified

Assay [1] has as its target T1, fHbp m001935 (Neisseria meningitidis; fHbp …, chimera).
T1 chain: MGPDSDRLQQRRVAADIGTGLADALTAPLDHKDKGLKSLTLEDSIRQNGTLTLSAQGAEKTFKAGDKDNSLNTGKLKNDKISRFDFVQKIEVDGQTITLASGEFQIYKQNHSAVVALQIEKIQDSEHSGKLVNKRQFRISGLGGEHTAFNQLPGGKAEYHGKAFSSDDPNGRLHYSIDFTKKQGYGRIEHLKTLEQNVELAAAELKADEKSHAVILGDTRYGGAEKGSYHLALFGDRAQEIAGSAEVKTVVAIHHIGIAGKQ

In assay [2] the target is T2, fHbp m002332 (Neisseria meningitidis; fHbp …, chimera).
T2 chain: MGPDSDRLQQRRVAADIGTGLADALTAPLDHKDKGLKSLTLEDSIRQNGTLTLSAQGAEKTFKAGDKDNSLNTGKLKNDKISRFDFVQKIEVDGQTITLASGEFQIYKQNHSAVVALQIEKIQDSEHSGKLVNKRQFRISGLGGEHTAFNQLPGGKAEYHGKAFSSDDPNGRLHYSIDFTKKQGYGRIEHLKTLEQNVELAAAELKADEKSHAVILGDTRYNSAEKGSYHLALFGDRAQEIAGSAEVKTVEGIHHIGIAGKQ

The target of assay [3] is T3, fHbp m002252 (Neisseria meningitidis; fHbp …, chimera).
T3 chain: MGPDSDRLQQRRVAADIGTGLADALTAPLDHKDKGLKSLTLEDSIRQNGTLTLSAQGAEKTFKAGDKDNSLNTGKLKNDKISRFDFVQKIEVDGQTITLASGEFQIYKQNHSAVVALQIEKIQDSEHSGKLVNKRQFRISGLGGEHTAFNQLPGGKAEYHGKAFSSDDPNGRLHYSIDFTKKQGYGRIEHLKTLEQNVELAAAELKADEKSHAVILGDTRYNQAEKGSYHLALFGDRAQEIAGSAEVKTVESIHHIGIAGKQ

Assay [4] concerns the target T4, fHbp m002413 (Neisseria meningitidis, designed fHbp …, chimera).
T4 chain: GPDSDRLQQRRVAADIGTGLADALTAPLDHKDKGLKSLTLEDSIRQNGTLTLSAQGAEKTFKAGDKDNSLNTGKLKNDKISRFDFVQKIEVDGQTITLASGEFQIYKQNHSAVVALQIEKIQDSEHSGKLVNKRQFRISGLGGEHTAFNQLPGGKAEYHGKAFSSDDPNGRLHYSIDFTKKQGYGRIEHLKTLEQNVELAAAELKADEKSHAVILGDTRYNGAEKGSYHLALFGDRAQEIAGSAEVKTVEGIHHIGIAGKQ

Assay [5] has as its target T5, fHbp m002415 (Neisseria meningitidis, designed fHbp …, chimera).
T5 chain: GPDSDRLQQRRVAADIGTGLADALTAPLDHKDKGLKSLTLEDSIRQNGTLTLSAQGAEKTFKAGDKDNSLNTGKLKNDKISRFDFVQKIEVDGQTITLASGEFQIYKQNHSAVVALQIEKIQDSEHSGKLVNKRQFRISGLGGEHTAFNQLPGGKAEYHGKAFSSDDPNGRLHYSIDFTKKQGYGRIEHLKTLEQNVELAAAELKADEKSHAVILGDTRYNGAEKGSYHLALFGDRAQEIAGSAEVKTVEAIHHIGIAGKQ

The target of assay [6] is T6, fHbp m002392 (Neisseria meningitidis; fHbp …, chimera).
T6 chain: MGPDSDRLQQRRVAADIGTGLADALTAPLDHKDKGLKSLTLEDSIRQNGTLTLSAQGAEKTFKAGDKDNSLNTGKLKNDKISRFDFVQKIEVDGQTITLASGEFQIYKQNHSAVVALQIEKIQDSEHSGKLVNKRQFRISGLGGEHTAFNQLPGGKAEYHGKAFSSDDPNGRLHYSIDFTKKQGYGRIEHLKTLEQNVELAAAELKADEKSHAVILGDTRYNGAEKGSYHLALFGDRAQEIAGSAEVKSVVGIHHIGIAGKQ

Assay [7] concerns the target T7, fHbp m001928 (Neisseria meningitidis; fHbp …, chimera).
T7 chain: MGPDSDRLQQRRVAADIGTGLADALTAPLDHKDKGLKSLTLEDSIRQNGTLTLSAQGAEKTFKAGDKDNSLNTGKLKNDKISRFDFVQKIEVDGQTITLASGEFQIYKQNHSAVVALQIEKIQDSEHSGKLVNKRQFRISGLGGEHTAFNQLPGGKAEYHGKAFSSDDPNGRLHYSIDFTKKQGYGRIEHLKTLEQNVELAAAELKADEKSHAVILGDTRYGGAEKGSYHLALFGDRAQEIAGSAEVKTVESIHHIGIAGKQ

For assay [8], the target named is T8, fHbp m002421 (Neisseria meningitidis, designed fHbp …, point mutant).
T8 chain: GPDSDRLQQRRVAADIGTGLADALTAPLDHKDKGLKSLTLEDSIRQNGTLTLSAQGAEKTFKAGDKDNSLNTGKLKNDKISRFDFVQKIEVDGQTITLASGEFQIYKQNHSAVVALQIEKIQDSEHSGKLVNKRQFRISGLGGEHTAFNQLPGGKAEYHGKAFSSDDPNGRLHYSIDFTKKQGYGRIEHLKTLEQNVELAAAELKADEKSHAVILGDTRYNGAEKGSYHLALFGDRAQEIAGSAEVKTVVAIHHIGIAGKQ

Assay [9] deals with T9, fHbp m002335 (Neisseria meningitidis; fHbp …, chimera).
T9 chain: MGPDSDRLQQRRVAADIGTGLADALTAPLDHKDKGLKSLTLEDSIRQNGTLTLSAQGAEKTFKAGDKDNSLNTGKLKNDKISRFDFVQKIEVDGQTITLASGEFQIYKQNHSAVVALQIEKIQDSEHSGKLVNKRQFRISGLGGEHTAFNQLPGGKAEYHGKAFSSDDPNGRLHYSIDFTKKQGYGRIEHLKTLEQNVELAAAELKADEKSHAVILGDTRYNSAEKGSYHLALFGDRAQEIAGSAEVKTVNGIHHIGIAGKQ

B1: chimeric antibody hJAR5 (antibody, V domains shown)
VH: QVQMQQPGAELVKPGASVKLSCKASGYTFISYWMHWVKQRPGRGLEWIGRIAPDTGIIYYNEKFKNKATLTVDTPSSTAYMQLNSLTSEDSAVYYCARYLKYDGSTYRFDYWGQGTTLTVSS
VL: DIVMTQAAPSVPVTPGESVSISCRSSKSLLHSNGNTYLFWFLQRPGQSPQLLIYRMSNLASGVPDRFSGSGSGTSFTLRISRVEAEDVGVYYCMQHLEYPYTFGGGTKLEIK
notes: also called hJAR5-2; humanized JAR5; source: Expi293, purified (MabSelect SuRe, SEC); copies: 2 + 2
Regarding B1, the Kd in assay [1] was 401 pM; in [2] it was 662 pM; in [3] it was 5070 pM; in [4] it was 1090 pM; in assay [5], 664 pM; in assay [6], 711 pM and 689 pM. Also, the Kd came to 741 pM in assay [7], 192 pM in [8] and 883 pM in assay [9].

B2: mAb 4B3 (human) (antibody, V domains shown)
VH: QVQLVQSGGGLVKPGGSLRLSCAASGFPFSSYYMSWIRQAPGKGLEWVSDINNSGNVKEYADFVKGRLTISRDNVKNSMYLHMNSLRVEDTAVYYCARNRGRFDVWGQGTLVTVSA
VL: EIVMTQSPGTLSLSPGETATLSCRASQMISSPFLAWYQQRRGQAPRLLIYGASTRATDTPDRFRGSGSGTDFILTISRLEPEDFAVYYCQYYDDSPFTFGQGTKLEIK
notes: also called 4B3-2; source: Expi293, purified (MabSelect SuRe, SEC); copies: 2 + 2
In the case of B2, the dissociation constant Kd was 2340 pM in assay [1]; 4040 pM in assay [2]; 1270 pM in assay [3]; 4570 pM and 3740 pM in assay [4]; 3780 pM in assay [5]; 2950 pM in [6]. Further, the Kd in assay [7] turned out to be 4250 pM; in assay [8], 1250 pM; in assay [9] it was 5080 pM. Also, the koff is 0.000973 s⁻¹ in assay [1]; 0.00118 s⁻¹ in [2]; 0.000415 s⁻¹ in assay [3]; 0.00112 s⁻¹ and 0.00115 s⁻¹ in assay [4]; 0.00101 s⁻¹ in [5]; 0.00106 s⁻¹ in [6]. In addition, the koff in assay [7] is 0.00106 s⁻¹; in assay [8] it was 0.00101 s⁻¹; in [9], 0.00109 s⁻¹. Besides, the kon is 415300 ± 2100 M⁻¹ s⁻¹ in [1]; 291800 ± 1150 M⁻¹ s⁻¹ in assay [2]; 327400 ± 2090 M⁻¹ s⁻¹ in [3]; 245000 M⁻¹ s⁻¹ and 307000 M⁻¹ s⁻¹ in assay [4]; 267700 ± 1540 M⁻¹ s⁻¹ in assay [5]; 359400 ± 1640 M⁻¹ s⁻¹ in [6]. In addition, the kon turned out to be 248300 ± 1560 M⁻¹ s⁻¹ in assay [7], 803900 ± 3510 M⁻¹ s⁻¹ in assay [8] and 214100 ± 1500 M⁻¹ s⁻¹ in assay [9].

B3: chimeric antibody h12C1 (antibody, V domains shown)
VH: QVQLQESGPELVKPGASVKISCKASGYSFSDYNMSWVKQSNGKSLEWIGIIDPKYGTINYNQKFKGKATLTVDQASSTAYMQLNSLTSEDSAVYYCVRDYYGSSYFDYWGQGTTLTVSS
VL: DIVLTQSPSSIYASLGERVTLTCKASQDIHNYLNWFQQKPGKSPKTLIYRANRLVDGVPSRFSGGGSGQDYSLTISSLEFEDIGIYYCLQYDEFPPTFGGGTRLEIK
notes: also called humanized 12C1; source: Expi293, purified (MabSelect SuRe, SEC); copies: 2 + 2
B3: the Kd in assay [1] is 18900 pM; in [2] it was 1190 pM; in [3] it was 269 pM; in assay [4], 1100 pM; in assay [5], 66700 pM; in assay [6], 892 pM. Besides, the figures for the Kd in [7], in assay [8] and in [9] were 55300 pM, 33800 pM and 235 pM, respectively. The koff in assay [1] was determined as 0.00626 s⁻¹; in assay [2], 0.000253 s⁻¹; in assay [3], 4.04e-05 s⁻¹; in [4], 0.000237 s⁻¹; in assay [5], 0.00939 s⁻¹; in [6] it was 0.000212 s⁻¹. In addition, the results for the koff in assay [7], in assay [8] and in [9] were 0.0146 s⁻¹, 0.00845 s⁻¹ and 8.01e-05 s⁻¹, respectively. Further, the kon worked out at 330500 ± 3080 M⁻¹ s⁻¹ in assay [1]; 212700 ± 1530 M⁻¹ s⁻¹ in [2]; 150400 ± 1270 M⁻¹ s⁻¹ in [3]; 214700 ± 1140 M⁻¹ s⁻¹ in assay [4]; 141000 ± 2240 M⁻¹ s⁻¹ in assay [5]; 237100 ± 1550 M⁻¹ s⁻¹ in [6]. For the same molecule, the kon in assay [7] was determined as 264000 ± 5240 M⁻¹ s⁻¹; in [8] it was 250000 ± 2560 M⁻¹ s⁻¹; in [9] it was 340700 ± 1750 M⁻¹ s⁻¹.

B4: mAb 1E6 (human) (antibody, V domains shown)
VH: EVQLVQSGAEVKKPGSSVKVSCKASGGTVIDYPITWVRQAPGQGLEWVGGFVPLFRTSNYGQKFQGRVTITADKSTSTASMELNSLTSEDTAIYYCARGDTAMGPFDYWGQGTLVTVSS
VL: SYVLTQPPSLSVAPGKTATLTCGGNNIAGKTVHWYQQRPGQAPVLVISYDSDRPSGIPERFSGSNSANTATLTISRVEAGDEADYYCQVWDRNSDHWVFGGGTKLTVL
notes: source: Expi293, purified (MabSelect SuRe, SEC); copies: 2 + 2
On to B4, for which the Kd came to 131 pM in assay [1]; 708 pM in assay [2]; 133 pM in assay [3]; 660 pM in [4]; 831 pM in [5]; 515 pM in assay [6]. In addition, the figures for the Kd in assay [7], in assay [8] and in [9] were 174 pM, 131 pM and 137 pM, respectively. Besides, the koff in assay [1] was found to be 5.4e-05 s⁻¹; in [2] it was 0.000264 s⁻¹; in assay [3], 4.06e-05 s⁻¹; in [4] it was 0.000271 s⁻¹; in [5] it was 0.000302 s⁻¹; in assay [6], 0.000157 s⁻¹. For the same molecule, the koff in assay [7] is 0.000163 s⁻¹; in assay [8], 5.56e-05 s⁻¹; in [9], 0.000102 s⁻¹. Also, the kon in [1] turned out to be 412500 ± 2300 M⁻¹ s⁻¹; in [2], 373200 ± 1990 M⁻¹ s⁻¹; in [3], 304600 ± 2710 M⁻¹ s⁻¹; in assay [4], 410700 ± 2050 M⁻¹ s⁻¹; in assay [5] it was 363300 ± 1200 M⁻¹ s⁻¹; in assay [6], 305400 ± 1880 M⁻¹ s⁻¹. The kon in assay [7] is 937300 ± 2910 M⁻¹ s⁻¹; in assay [8], 424400 ± 3050 M⁻¹ s⁻¹; in assay [9], 744000 ± 3230 M⁻¹ s⁻¹.
